Test results taken from the supplement of paper PMC10065799, “High-throughput profiling of sequence recognition by tyrosine kinases and SH2 domains using bacterial peptide display” (eLife, 2023).

Key:
FGFR3 = FGFR3 (UniProt P22607); assay: phosphorylation enrichment, bacterial display (enrichment ratio); higher = better substrate or ligand; peptides without Tyr show the background
c-Abl (mouse) = assay: as above
Fer (mouse) = assay: as above
Jak2 = Jak2 (UniProt O60674); assay: as above
FGFR1 = FGFR1 (UniProt P11362); assay: as above
c-Src = assay: as above
EPHB1 = EPHB1 (UniProt P54762); assay: as above
Hck = Hck (UniProt P08631); assay: as above
Fyn = Fyn (UniProt P06241); assay: as above
AncSZ = assay: as above
EPHB2 = EPHB2 (UniProt P29323); assay: as above
MERTK = MERTK (UniProt Q12866); assay: as above
Fes = Fes (UniProt P07332); assay: as above
SHP2-C SH2 = assay: SH2 binding enrichment of the phosphorylated peptide, bacterial display (enrichment ratio); higher = better substrate or ligand; peptides without Tyr show the background
Grb2 SH2 = Grb2 SH2 (UniProt P62993); assay: as above
c-Src SH2 = assay: as above
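Throughout, for SH2 binding enrichment of the phosphorylated peptide, bacterial display: peptide library displayed on the E. coli surface as eCPX fusions, selected cells deep-sequenced, score is each peptide's frequency after selection divided by its frequency in the input.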
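Throughout, for phosphorylation enrichment, bacterial display: 11-residue human phosphosite peptides and single-mutation variants displayed on the E. coli surface, counted by deep sequencing, each peptide's frequency after selection divided by its frequency in the unselected input library; frequency after pTyr selection over input frequency; kinase dosed for 20-30% of maximal phosphorylation in three min.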

Chain of Jak2 (O60674 whole entry, looked up): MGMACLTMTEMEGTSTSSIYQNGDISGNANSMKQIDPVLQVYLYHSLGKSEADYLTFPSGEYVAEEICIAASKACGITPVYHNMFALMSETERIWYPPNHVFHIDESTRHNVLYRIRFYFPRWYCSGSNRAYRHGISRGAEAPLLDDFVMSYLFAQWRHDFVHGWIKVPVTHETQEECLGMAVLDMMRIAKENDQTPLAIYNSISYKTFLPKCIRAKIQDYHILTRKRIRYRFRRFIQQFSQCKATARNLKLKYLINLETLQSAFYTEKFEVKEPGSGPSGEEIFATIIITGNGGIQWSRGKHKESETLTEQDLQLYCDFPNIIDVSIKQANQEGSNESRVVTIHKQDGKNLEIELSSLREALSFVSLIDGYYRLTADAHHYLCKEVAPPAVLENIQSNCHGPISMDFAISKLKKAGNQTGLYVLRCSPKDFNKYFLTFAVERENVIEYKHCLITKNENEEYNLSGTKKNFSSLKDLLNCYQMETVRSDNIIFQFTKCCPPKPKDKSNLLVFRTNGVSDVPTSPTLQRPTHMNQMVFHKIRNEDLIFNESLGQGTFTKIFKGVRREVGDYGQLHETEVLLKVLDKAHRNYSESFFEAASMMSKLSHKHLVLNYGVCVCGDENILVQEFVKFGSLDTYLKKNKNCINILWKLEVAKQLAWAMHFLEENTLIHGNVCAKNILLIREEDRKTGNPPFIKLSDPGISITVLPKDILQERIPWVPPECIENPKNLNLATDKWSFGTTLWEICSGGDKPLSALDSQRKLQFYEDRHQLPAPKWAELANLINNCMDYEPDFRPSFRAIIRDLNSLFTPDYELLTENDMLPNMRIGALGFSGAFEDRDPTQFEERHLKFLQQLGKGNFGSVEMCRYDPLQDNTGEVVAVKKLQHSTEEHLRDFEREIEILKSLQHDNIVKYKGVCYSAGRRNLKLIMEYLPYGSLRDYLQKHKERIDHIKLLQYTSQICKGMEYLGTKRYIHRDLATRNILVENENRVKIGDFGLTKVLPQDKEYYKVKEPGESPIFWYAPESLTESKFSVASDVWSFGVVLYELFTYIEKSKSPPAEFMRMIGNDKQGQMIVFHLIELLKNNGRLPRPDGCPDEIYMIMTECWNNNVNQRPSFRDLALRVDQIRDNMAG
Chain of Fyn (P06241 whole entry, looked up): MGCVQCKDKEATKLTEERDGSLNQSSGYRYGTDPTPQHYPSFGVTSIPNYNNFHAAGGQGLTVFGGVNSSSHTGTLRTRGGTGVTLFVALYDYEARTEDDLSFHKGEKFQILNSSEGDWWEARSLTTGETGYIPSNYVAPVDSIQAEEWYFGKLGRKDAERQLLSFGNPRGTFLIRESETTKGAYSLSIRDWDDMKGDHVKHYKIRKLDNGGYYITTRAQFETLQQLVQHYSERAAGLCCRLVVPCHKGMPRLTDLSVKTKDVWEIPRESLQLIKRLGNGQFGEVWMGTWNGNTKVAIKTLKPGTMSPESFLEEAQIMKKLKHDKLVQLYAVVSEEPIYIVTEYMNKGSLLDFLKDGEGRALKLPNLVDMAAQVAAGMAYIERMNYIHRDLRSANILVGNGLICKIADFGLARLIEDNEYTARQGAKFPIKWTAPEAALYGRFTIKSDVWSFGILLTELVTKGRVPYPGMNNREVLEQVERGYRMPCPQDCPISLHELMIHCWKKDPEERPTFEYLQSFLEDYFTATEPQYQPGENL
Chain of Fes (P07332 whole entry, looked up): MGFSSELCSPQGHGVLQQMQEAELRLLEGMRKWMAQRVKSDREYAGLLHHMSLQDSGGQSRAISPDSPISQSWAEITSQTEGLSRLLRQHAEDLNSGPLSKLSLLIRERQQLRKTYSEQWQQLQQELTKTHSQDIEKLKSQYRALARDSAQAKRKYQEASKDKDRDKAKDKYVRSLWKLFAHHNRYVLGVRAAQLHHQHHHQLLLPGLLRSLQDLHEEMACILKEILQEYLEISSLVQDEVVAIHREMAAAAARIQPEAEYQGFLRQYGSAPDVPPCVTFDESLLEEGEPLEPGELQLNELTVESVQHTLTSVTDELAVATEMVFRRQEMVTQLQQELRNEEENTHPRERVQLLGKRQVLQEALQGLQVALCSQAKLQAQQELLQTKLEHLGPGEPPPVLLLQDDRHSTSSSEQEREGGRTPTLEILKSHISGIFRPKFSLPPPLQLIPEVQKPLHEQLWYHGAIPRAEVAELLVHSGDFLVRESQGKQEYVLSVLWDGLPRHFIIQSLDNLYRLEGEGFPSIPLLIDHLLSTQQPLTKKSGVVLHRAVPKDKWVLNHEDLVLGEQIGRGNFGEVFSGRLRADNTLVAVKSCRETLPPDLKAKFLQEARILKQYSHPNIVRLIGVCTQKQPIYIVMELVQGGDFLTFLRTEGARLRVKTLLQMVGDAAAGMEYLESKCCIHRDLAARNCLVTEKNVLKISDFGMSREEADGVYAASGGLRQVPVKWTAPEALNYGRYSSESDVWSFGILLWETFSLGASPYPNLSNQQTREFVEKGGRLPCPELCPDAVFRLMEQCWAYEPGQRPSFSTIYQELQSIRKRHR
Chain of MERTK (Q12866 whole entry, looked up): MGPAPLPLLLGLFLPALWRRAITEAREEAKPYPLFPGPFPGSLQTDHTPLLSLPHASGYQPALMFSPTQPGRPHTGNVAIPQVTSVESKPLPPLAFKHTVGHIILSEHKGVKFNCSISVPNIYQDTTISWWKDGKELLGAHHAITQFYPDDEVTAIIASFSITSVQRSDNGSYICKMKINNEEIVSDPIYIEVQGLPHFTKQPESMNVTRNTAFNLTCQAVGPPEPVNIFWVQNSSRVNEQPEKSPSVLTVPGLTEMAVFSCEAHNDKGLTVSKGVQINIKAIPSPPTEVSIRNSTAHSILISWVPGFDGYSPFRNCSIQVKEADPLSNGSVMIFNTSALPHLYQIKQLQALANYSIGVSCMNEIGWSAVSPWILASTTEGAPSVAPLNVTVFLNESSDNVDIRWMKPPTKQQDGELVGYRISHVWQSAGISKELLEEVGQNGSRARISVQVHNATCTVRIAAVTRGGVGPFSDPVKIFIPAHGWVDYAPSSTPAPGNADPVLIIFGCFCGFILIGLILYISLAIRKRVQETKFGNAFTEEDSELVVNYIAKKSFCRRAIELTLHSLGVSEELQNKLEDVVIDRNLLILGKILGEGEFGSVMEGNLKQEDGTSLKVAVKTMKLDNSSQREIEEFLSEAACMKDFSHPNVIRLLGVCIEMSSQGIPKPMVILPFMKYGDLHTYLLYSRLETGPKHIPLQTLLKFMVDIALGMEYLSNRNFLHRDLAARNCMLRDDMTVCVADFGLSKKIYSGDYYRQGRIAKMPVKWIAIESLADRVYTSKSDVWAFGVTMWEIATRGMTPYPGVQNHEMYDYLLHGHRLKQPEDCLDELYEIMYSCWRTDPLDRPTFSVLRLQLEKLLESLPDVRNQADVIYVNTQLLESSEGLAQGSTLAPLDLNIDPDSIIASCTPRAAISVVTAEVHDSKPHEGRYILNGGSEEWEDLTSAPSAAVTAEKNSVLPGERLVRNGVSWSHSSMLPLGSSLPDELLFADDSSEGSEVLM
Chain of EPHB2 (P29323 whole entry, looked up): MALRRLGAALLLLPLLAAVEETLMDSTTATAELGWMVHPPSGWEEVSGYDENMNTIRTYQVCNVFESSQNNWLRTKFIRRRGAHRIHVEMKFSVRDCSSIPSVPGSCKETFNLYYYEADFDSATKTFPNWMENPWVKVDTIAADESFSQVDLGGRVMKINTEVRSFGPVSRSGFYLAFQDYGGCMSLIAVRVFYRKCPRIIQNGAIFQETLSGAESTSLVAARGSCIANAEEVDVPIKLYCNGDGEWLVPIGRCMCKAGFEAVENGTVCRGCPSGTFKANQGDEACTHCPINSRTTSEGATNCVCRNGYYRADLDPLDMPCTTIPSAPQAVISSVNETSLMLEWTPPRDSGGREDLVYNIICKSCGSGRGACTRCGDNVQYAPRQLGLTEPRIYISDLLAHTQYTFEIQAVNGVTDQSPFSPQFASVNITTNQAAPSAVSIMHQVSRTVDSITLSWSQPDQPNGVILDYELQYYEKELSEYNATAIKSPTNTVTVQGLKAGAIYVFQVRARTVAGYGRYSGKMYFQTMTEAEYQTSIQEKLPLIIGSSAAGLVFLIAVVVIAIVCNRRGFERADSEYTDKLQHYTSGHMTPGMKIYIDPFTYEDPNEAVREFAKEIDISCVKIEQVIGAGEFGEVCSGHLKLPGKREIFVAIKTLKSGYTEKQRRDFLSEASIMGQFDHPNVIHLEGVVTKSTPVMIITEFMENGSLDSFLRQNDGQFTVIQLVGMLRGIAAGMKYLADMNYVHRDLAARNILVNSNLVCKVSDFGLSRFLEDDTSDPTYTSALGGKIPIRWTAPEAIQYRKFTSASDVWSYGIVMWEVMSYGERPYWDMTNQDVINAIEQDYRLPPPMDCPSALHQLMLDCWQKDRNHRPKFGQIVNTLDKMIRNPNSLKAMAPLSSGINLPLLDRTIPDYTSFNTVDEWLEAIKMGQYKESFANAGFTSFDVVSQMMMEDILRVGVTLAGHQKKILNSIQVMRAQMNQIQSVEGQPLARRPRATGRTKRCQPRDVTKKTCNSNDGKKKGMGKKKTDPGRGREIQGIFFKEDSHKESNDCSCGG
Chain of Grb2 SH2 (P62993 whole entry, looked up): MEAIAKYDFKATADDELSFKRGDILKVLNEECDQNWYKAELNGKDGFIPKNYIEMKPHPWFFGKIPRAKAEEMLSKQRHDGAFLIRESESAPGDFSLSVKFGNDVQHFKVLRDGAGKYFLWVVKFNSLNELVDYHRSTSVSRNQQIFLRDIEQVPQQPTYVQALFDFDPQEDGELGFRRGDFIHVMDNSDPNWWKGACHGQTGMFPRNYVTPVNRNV

Row | Sequence | phosphorylation enrichment (FGFR3) | phosphorylation enrichment (c-Abl (mouse)) | phosphorylation enrichment (Fer (mouse)) | phosphorylation enrichment (Jak2) | phosphorylation enrichment (FGFR1) | phosphorylation enrichment (c-Src) | phosphorylation enrichment (EPHB1) | phosphorylation enrichment (Hck) | phosphorylation enrichment (Fyn) | phosphorylation enrichment (AncSZ) | phosphorylation enrichment (EPHB2) | phosphorylation enrichment (MERTK) | phosphorylation enrichment (Fes) | SH2 binding enrichment (SHP2-C SH2) | SH2 binding enrichment (Grb2 SH2) | SH2 binding enrichment (c-Src SH2)
1 | CTTIHYNFMFN [TP53_Y234_C238F_YF] | 0.945 | 1.04 | 0.789 | 1.34 | 0.676 | 0.586 | 0.786 | 0.569 | 0.52 | 1.27 | 0.684 | 0.595 | 1.61 | 1.08 | 0.975 | 0.756
2 | CTTIHYNHMCN [TP53_Y234_Y236H] | 0.506 | 0.574 | 0.369 | 0.688 | 0.432 | 0.422 | 0.445 | 0.414 | 0.455 | 0.692 | 0.456 | 0.476 | 0.796 | 1.24 | 1.22 | 1.7
3 | CTTIHYNSMCN [TP53_Y234_Y236S] | 0.627 | 0.544 | 0.467 | 0.603 | 0.486 | 0.396 | 0.514 | 0.561 | 0.464 | 0.849 | 0.645 | 0.42 | 0.905 | 1.06 | 1.01 | 2.42
4 | CTTIHYNYMCK [TP53_Y234_N239K] | 0.61 | 0.551 | 0.5 | 0.674 | 0.547 | 0.371 | 0.54 | 0.473 | 0.482 | 0.736 | 0.562 | 0.456 | 0.826 | 1.64 | 1.45 | 3.07
5 | CTTIHYNYMCT [TP53_Y234_N239T] | 0.817 | 0.656 | 0.915 | 0.657 | 0.899 | 0.5 | 2.71 | 0.545 | 0.569 | 0.936 | 1.02 | 0.784 | 1 | 2.78 | 1.42 | 4.38
6 | CTTIHYNYMGN [TP53_Y234_C238G] | 0.653 | 0.657 | 0.763 | 0.865 | 0.532 | 0.425 | 0.85 | 0.462 | 0.402 | 0.915 | 0.62 | 0.633 | 0.987 | 0.842 | 0.926 | 1.3
7 | CTTILYNYMCN [TP53_Y234_H233L] | 0.894 | 0.615 | 1.2 | 1.16 | 0.94 | 1.24 | 0.958 | 1.14 | 0.745 | 1.18 | 0.766 | 2.36 | 1.06 | 1.9 | 1.78 | 2.4
8 | CVGGFYGGCNE [CTSC_Y352_Y347C] | 0.653 | 0.471 | 0.566 | 0.636 | 0.439 | 1.88 | 0.548 | 0.838 | 0.678 | 0.81 | 0.625 | 0.585 | 0.854 | 0.748 | 1.01 | 0.908
9 | DAASNYARGHY [TUBA3E_Y103] | 0.463 | 0.533 | 0.342 | 0.428 | 0.495 | 0.43 | 0.383 | 0.475 | 0.353 | 0.522 | 0.524 | 0.44 | 0.519 | 0.743 | 0.784 | 0.524
10 | DDEESYENVPR [FCRL3_Y722_N721S] | 0.666 | 0.687 | 0.427 | 1.06 | 0.475 | 0.462 | 0.466 | 0.481 | 0.516 | 1.12 | 0.548 | 0.47 | 0.969 | 0.77 | 0.935 | 0.672
11 | DDSSAYRSVDE [BCKDHA_Y345] | 0.707 | 1.01 | 0.721 | 1.12 | 0.569 | 0.568 | 0.671 | 0.553 | 0.547 | 1.16 | 0.528 | 0.485 | 1.29 | 0.765 | 0.794 | 0.886
12 | DEDFLCREELA [POR_Y575_Y575C_YF] | 0.846 | 0.821 | 0.486 | 1.33 | 0.572 | 0.613 | 0.701 | 0.629 | 0.528 | 1.25 | 0.657 | 0.501 | 1.38 | 0.734 | 0.8 | 0.543
13 | DEEDFYQGSME [ASCC1_Y36] | 0.953 | 0.889 | 0.798 | 1.54 | 0.549 | 0.603 | 0.761 | 0.654 | 0.598 | 1.46 | 0.595 | 0.524 | 1.54 | 0.575 | 0.572 | 0.427
14 | DENWFYTRAAS [RPS19_Y54] | 0.673 | 1.34 | 0.45 | 1.11 | 0.402 | 0.418 | 0.547 | 0.382 | 0.454 | 1.13 | 0.517 | 0.401 | 1.11 | 0.816 | 0.821 | 0.661
15 | DENWFYTRPAS [RPS19_Y54_A57P] | 0.734 | 0.673 | 0.676 | 1.43 | 0.496 | 0.489 | 0.59 | 0.565 | 0.497 | 1.46 | 0.55 | 0.477 | 1.07 | 0.672 | 0.78 | 1.01
16 | DESEDCRDTVV [CNNM3_Y456_Y456C] | 0.723 | 0.777 | 0.515 | 1.03 | 0.589 | 0.474 | 0.788 | 0.587 | 0.528 | 1.22 | 0.597 | 0.518 | 1.11 | 0.887 | 0.97 | 0.672
17 | DFLSSYSAVNE [OAT_Y85_Q90E] | 0.685 | 0.566 | 0.525 | 0.745 | 0.55 | 0.468 | 0.504 | 0.554 | 0.531 | 0.896 | 0.596 | 0.49 | 0.953 | 0.902 | 0.864 | 2.35
18 | DFPGNYSGFDD [POLR1C_Y33_YF] | 0.637 | 0.588 | 0.408 | 0.676 | 0.456 | 0.548 | 0.927 | 0.481 | 0.55 | 0.858 | 0.531 | 0.376 | 0.899 | 0.815 | 0.839 | 0.806
19 | DGDTRYSTFSE [TKTL1_Y318] | 0.669 | 0.764 | 0.481 | 0.849 | 0.41 | 0.5 | 0.609 | 0.559 | 0.467 | 0.837 | 0.487 | 0.451 | 0.879 | 1.82 | 0.978 | 2.62
20 | DHKRQYELLKL [KIF4B_Y684_R680H] | 0.52 | 0.511 | 0.505 | 0.514 | 0.342 | 0.411 | 0.448 | 0.415 | 0.395 | 0.472 | 0.429 | 0.367 | 0.697 | 0.76 | 0.79 | 2.31
21 | DHTVNYVLKCR [PLEKHG4_Y1068_R1064H] | 0.855 | 0.859 | 0.512 | 1.09 | 0.602 | 0.409 | 0.699 | 0.532 | 0.479 | 1.18 | 0.677 | 0.419 | 1.38 | 0.63 | 0.67 | 0.346
22 | DKMEAYNIDET [TEKT4_Y210] | 0.83 | 0.755 | 0.584 | 1.04 | 0.56 | 0.492 | 0.604 | 0.583 | 0.568 | 1.32 | 0.618 | 0.459 | 1.29 | 0.685 | 0.82 | 0.528
23 | DLDTDYGSGYP [RNASEH2A_Y206] | 0.879 | 1.21 | 0.682 | 1.14 | 0.689 | 0.652 | 0.691 | 0.589 | 0.852 | 1.36 | 0.648 | 0.554 | 1.47 | 0.565 | 0.816 | 0.439
24 | DLRTGYSVPYG [TGM1_Y370_Y365D] | 0.592 | 0.568 | 0.456 | 0.663 | 0.553 | 0.384 | 0.409 | 0.459 | 0.392 | 0.721 | 0.411 | 0.399 | 0.665 | 0.717 | 0.906 | 9.61
25 | DMLTLYVNTAA [SMCHD1_Y403_Q400L] | 0.855 | 0.766 | 0.535 | 1.13 | 0.569 | 0.524 | 0.758 | 0.557 | 0.457 | 1.4 | 0.775 | 0.444 | 1.36 | 0.993 | 5.64 | 0.646
26 | DNAFQYMLTDR [MYH7_Y164_YF] | 0.584 | 0.47 | 0.472 | 0.738 | 0.461 | 0.543 | 0.44 | 0.494 | 0.47 | 0.955 | 0.496 | 0.374 | 1.02 | 0.767 | 0.923 | 0.685
27 | DNAYQYMLTDR [MYH7_Y164] | 2.3 | 0.526 | 2.74 | 0.85 | 3.6 | 0.767 | 0.61 | 0.608 | 0.658 | 1.23 | 0.461 | 1.27 | 0.859 | 0.664 | 0.7 | 1.34
28 | DPGVSYCTREE [PDHA1_Y301_R302C] | 1.12 | 0.714 | 0.481 | 1.1 | 0.576 | 0.449 | 0.643 | 0.688 | 0.606 | 1.12 | 0.749 | 0.451 | 1.12 | 0.968 | 1.08 | 0.581
29 | DPNQQYYIAMD [TBX15_Y159_H156N] | 2.95 | 0.571 | 0.487 | 0.959 | 3.98 | 0.812 | 0.875 | 0.613 | 0.566 | 1.12 | 0.719 | 1.65 | 0.992 | 0.628 | 0.881 | 1.44
